Earlier results in paper PMC4618177.
Where two headings read alike, the source gives them in different places.

Key:
[1] = biological target: ARF5 PB1 (Arabidopsis thaliana) (UniProt P93024)
[2] = biological target: IAA17 PB1 (Arabidopsis thaliana) (UniProt P93830)
[3] = biological target: IAA17 PB1 (Arabidopsis thaliana) (UniProt P93830); remark: listed apart in the source

Substance	Kd [1] [nM]	Kd [2] [nM]	Kd [3] [nM]
ARF5 PB1 (from UniProt P93024)	860	73	
IAA17 PB1 (from UniProt P93830)			6600
